Assay results from article PMC8123688, “In Vivo Imaging of Thyroid Cancer with ^99mTc-TR1401 and ^99mTc-TR1402: A Comparison Study in Dogs” (Journal of Clinical Medicine, 2021).

Target: T1, TSH receptor (TSHR) on human ML-1 cells (human (endogenous in ML-1), UniProt P16473 21-764)
T1 construct: thyrotropin receptor (TSHR) expressed on the TSHR-positive human thyroid cancer cell line ML-1; also called TSH receptors; source: endogenous, on human ML-1 cells
Assay: radioligand binding; real-time kinetic binding assay with LigandTracer; 10^6 ML-1 cells seeded in a tilted Petri dish; 2 mL of 30 nM radiolabeled ligand in culture medium for 1 h, then medium without ligand to follow release; Kd from binding/release curve (GraphPad Prism)
Conditions: one partner purified

T1 sequence (P16473 21-764): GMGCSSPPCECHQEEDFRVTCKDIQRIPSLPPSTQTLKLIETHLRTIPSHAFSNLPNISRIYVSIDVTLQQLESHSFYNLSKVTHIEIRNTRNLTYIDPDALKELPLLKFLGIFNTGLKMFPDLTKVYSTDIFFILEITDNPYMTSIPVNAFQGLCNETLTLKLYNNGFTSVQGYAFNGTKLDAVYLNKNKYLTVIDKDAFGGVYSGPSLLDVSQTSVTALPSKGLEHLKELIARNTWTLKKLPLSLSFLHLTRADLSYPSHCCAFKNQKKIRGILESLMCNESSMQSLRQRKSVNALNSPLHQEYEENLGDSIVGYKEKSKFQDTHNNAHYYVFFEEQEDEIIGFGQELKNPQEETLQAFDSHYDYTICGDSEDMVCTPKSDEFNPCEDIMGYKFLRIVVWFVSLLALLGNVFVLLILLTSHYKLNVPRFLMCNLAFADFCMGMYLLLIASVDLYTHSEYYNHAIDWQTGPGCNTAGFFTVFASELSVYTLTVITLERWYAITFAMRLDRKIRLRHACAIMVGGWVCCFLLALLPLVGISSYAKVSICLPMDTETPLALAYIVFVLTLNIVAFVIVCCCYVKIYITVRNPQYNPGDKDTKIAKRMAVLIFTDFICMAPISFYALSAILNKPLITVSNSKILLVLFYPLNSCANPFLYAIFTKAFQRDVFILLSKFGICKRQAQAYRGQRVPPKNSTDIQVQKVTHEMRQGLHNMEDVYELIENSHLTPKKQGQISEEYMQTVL

B1: 99mTc-Thyrogen, radiolabeled recombinant human TSH (Thyrogen) (ligand)
chain 1: not shown
chain 2: FCIPTEYTMHIERRECAYCLTINTTICAGYCMTRDINGKLFLPKYALSQDVCTYRDFIYRTVEIPGCPLHVAPYFSYPVALSCKCGKCNTDYSDCIHEAIKTNYCTKPQKSY
modifications: technetium-99m label (sites and chain not stated) | technetium-99m label (sites and chain not stated)
notes: glycoprotein hormones alpha chain (alpha subunit of TSH), human; recombinant human TSH (Thyrogen), so named in the abstract; thyrotropin (TSH) beta subunit, human; Thyrogen is a drug product; also called rhTSH; radiolabeled human recombinant TSH
In the case of B1, the Kd is reported as 8.4 nM.
